Measurements: the supplement of paper PMC10567573

B1: EFHC1 (parent)
chain: NIYYYLEDDSMSVIEPVVENSGIL
B2: HESX1 (parent)
chain: ENKPSTCSFSIERILGLDQKKDCV

Variants of: B1
Test: protein stability index of a GFP-peptide fusion (GPS, HEK-293T) (PSI 1-6); higher = more stable
Conditions: c terminus: a fixed tail appended
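Also: lentivirally expressed fusions sorted by FACS into six bins by GFP to DsRed ratio, PSI derived from sequencing read proportions per bin multiplied by bin number.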

Protein stability index, by site and new letter:
Y3: N 3.38 | M 2.17 | I 2.23 | E 3.76 | P 3.39 | R 3.04 | V 2.38 | H 2.81 | C 2.9 | A 2.85 | F 2.07 | Q 3.12 | G 3.43 | T 3.64 | K 2.72 | W 1.82 | L 2.15 | S 3.2 | D 4.08
N1: F 2.88 | E 2.48 | S 2.19 | M 2.34 | K 1.09 | P 2.15 | C 1.54 | L 1.92 | D 1.59 | W 1.61 | R 1.32 | Q 2.83 | T 1.4 | G 2.08 | A 2.06 | Y 1.81 | H 1.74
Y5: I 1.92 | P 3.83 | K 3.41 | S 3.23 | W 1.75 | D 3.64 | F 1.94 | N 2.78 | R 3.35 | T 2.79 | E 3.62 | A 3.1 | Q 2.92 | G 3.27 | C 2.45 | L 2.51 | H 2.69 | M 2.36 | V 2.39
E7: C 2.43 | A 1.4 | D 1.89
Y4: T 2.91 | M 2.18 | C 2.31 | S 3.48 | Q 2.39 | F 1.85 | R 2.51 | E 2.78 | L 1.42 | G 3.49 | K 2.66 | I 1.49 | V 1.24 | P 4.01 | N 2.35 | H 2.33 | D 2.74 | W 2.99 | A 2.12
I2: H 2.72 | N 3.23 | P 3.82 | Y 2.07 | D 2.62 | V 2.13 | T 3.29 | R 3.03 | C 2.29 | S 3.4 | G 3.21 | W 2.35 | Q 3.33 | M 2.96 | F 1.82 | E 3.79 | A 2.86 | K 3.44 | L 2.05
L6: D 3.26 | Y 2.22 | N 3.57 | W 1.52 | A 3.01 | F 1.72 | R 2.93 | V 2.23 | K 2.68 | P 4.08 | S 2.5 | H 3.03 | T 2.71 | E 2.88 | M 2.25 | I 2.23 | Q 2.84 | C 2.24 | G 3.65

Variants of: B2
Test: as above
Conditions: c terminus: a fixed tail appended

Protein stability index, by site and new letter:
C23: G 3.56 | F 2.62 | L 2.7 | T 3.16 | Y 2.46 | E 3.6 | H 3.33 | K 3.41 | R 3.92 | P 3.29 | S 3.45 | M 2.83 | Q 3.42 | A 3.64 | I 2.91 | D 4.38 | N 3.23 | V 3.41
V24: T 2.83 | M 2.89 | H 4.64 | A 3.81 | P 3.14 | E 4.25 | C 3.49 | K 4.15 | Y 2.74 | D 4.18 | S 2.88 | R 3.38 | F 2.91 | I 3.64 | W 2.18 | Q 3.81 | G 3.9 | L 3.03 | N 3.79
D22: K 2.73 | R 3.08 | I 1.94 | Y 2.14 | W 1.46 | Q 2.73 | L 1.5 | H 2.04 | G 2.78 | T 2.02 | V 1.56 | P 3.08 | M 1.77 | S 3.41 | N 2.9
